Source: patent US20170173151A1 (Genmab, published 2017)

T1: HisCD74v1 (recombinant extracellular domain of human CD74 variant 1, N-terminal hexameric His tag) (human, UniProt P04233 73-296)
T1 construct: also called recombinant CD74v1; CD74v1 extracellular domain
T1 sequence: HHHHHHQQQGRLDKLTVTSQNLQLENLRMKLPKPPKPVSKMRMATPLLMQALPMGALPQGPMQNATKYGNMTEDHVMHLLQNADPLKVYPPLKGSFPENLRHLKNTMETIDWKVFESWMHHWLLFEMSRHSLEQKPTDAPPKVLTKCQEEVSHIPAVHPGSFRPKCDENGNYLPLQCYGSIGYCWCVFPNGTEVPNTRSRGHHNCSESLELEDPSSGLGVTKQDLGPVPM

T2: HisCD74v2 (recombinant extracellular domain of human CD74 variant 2, N-terminal hexameric His tag) (human, UniProt P04233 73-296)
T2 construct: also called recombinant CD74v2; CD74v2 extracellular domain
T2 sequence: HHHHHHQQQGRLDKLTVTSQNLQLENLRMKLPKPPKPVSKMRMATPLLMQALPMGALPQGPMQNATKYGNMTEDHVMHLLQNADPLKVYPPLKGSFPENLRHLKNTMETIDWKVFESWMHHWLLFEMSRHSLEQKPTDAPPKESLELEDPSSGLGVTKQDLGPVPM

B1: HuMab-CD74-006 (antibody, human IgG1, V domains shown)
VH: QVQLVESGGGVVQPGRSLRLSCAASGFTFSSYAMHWVRQAPGKGLEWVAVISYDGSIKYYADSVKGRFTISRDNSKNTLYLQMNSLRVEDTAVFYCARGREITSQNIVILLDYWGQGTLVTVTS
VL: DIQMTQSPSSLSASVGDRVTITCRASQGISSWLAWYQQKPEKAPKSLIYAASSLQSGVPSRFSGSGSGTDFTLTISSLQPEDFATYYCQQYNSYPLTFGGGTKVEIK
notes: Human IgG1,kappa antibody produced transiently in HEK-293F cells; also called antibody 006
B2: HuMab-CD74-006-mcMMAF (antibody, IgG1, V domains shown)
VH: B1 VH
VL: B1 VL
modifications: drug-linker mcMMAF alkylated to the cysteines of the reduced antibody (DAR 3.7-4.1)
notes: Antibody-drug conjugate of HuMab-CD74-006 (IgG1,kappa)
B3: HuMab-CD74-006-vcMMAE (antibody, IgG1, V domains shown)
VH: B1 VH
VL: B1 VL
modifications: drug-linker vcMMAE alkylated to the cysteines of the reduced antibody (DAR 4.0)
notes: Antibody-drug conjugate of HuMab-CD74-006 (IgG1,kappa); also called vcMMAE-conjugated HuMab-CD74-006
B4: HuMab-CD74-011-vcMMAE (antibody, IgG1, V domains shown)
VH: QVQLVESGGGVVQPGRSLRLSCAASGFTFSSYGMHWVRQAPDKGLEWVAVIWYDGSNKYYADSVKGRFTISRDNSKNTLYLQMNSLRAEDTAVYYCARGGTLVRGAMYGTDVWGQGTTVTVSS
VL: B1 VL
modifications: drug-linker vcMMAE alkylated to the cysteines of the reduced antibody (DAR 3.8-3.9)
notes: Antibody-drug conjugate of HuMab-CD74-011 (IgG1,kappa); also called vcMMAE-conjugated HuMab-CD74-011
B5: HuMab-CD74-011-mcMMAF (antibody, IgG1, V domains shown)
VH: B4 VH
VL: B1 VL
modifications: drug-linker mcMMAF alkylated to the cysteines of the reduced antibody (DAR 3.9 by HIC)
notes: Antibody-drug conjugate of HuMab-CD74-011 (IgG1,kappa)
B6: HuMab-CD74-011 (antibody, human IgG1, V domains shown)
VH: B4 VH
VL: B1 VL
notes: Human IgG1,kappa antibody produced transiently in HEK-293F cells; also called antibody 011

Legend:
[1] = molecular target: human CD74, naturally expressed on cells (Raji, Daudi, M4A4, NCI-H747 cells; human tonsil tissue) (human) (UniProt P04233); assay: FACS on Raji cells
[2] = molecular target: human CD74, naturally expressed on cells (Raji, Daudi, M4A4, NCI-H747 cells; human tonsil tissue) (human) (UniProt P04233); assay: FACS on Daudi cells, 10 µg/mL; mean of three experiments
[3] = molecular target: T1, HisCD74v1 (recombinant extracellular …); assay: ELISA, coated recombinant CD74v1 extracellular domain
Procedure: (§1) ELISA plates (Greiner BioOne) were coated 0/N at 4° C. with 2 μg/mL, 100 μL per well, recombinant CD74v1 or CD74v2 in PBS (B. Braun Melsungen AG). Sequences and production of the isoforms were described supra. ELISA wells were washed three times with PBS containing 0.05% Tween-20 (PBST), emptied, and blocked with 1% (w/v) BSA fraction V (Roche) in PBS at RT for 1 h while shaking (300 rpm), and emptied. Subsequently, 100 μL anti-CD74 HuMab antibodies were added in serial dilutions in 0.2% (w/v) BSA fraction V in PBST (assay buffer) and incubated while shaking at RT for 90 min. ELISA plates were washed three times with PBST, emptied, and bound HuMab antibodies were detected using HRP-conjugated goat-anti human IgG (100 μL; 1:5,000; Peroxidase Affinipure Goat anti-human IgG, F(ab′)2 Fragment Specific [min X Bov,Hrs,Ms Sr Prot]; Jackson Immunoresearch) in assay buffer and incubated while shaking at RT for 90 min. Plates were washed three times with PBST, emptied, and incubated with 100 μL ABTS solution (50 ml ABTS buffer [Roche] and one ABTS tablet [50 mg; Roche]). After incubation in the dark at RT for 30 min, the reaction was stopped by addition of 100 μL per well oxalic acid (2% [w/v]). Plates were measured at OD 405 nm in an ELISA reader (Biotek Instruments, EL808 Absorbance Microplate Reader).
(§2) Isotype control Ab IgG1-b12 was used as a negative control. Binding curves were analyzed using non-linear regression (sigmoidal dose-response with variable slope) using GraphPad Prism 5 software (GraphPad Software, San Diego, Calif., USA).

[4] = molecular target: human CD74, naturally expressed on cells (Raji, Daudi, M4A4, NCI-H747 cells; human tonsil tissue) (human) (UniProt P04233); assay: FACS on Daudi cells at 0° C., Alexa-488-labeled antibody displaced by excess unlabeled antibody
[5] = molecular target: T1, HisCD74v1 (recombinant extracellular …); assay: ELISA, coated recombinant CD74v1 extracellular domain (CD74ECDHis); mean of four experiments
Procedure: ELISA plates (Greiner BioOne) were coated with 2 μg/mL, 100 μL per well, recombinant CD74ECDHis in PBS (B. Braun Melsungen AG) at 4° C., 0/N. ELISA plates were emptied and blocked with 200 μL/well PBS containing 0.05% Tween-20 (PBST) while shaking (300 rpm), at RT for 1 hour, washed three times with 300 μL PBST and emptied. Subsequently, 100 μL anti-CD74 ADCs or unconjugated CD74-specific HuMab antibodies were added in serial dilutions in PBST and incubated while shaking at RT for 2 hours. ELISA plates were washed with PBST and emptied. Bound anti-CD74 ADCs and unconjugated HuMab antibodies were detected by addition of HRP-conjugated mouse-anti human IgG1 (100 μL; 0.015 μg/mL; Sanquin; # M1328) in PBST and incubation while shaking, at RT for 2 hours. Plates were washed with PBST, emptied and incubated with 100 μL ABTS solution (50 ml ABTS buffer [Roche] and one ABTS tablet [50 mg; Roche]). After incubation in the dark while shaking, at RT for 30 min, the reaction was stopped by incubation with 100 μL per well oxalic acid (2% [w/v]; Riedel de Haen) in the dark while shaking, for 10 min. Plates were measured at OD 405 nm in an ELISA reader (Biotek Instruments, EL808 Absorbance Microplate Reader).
IgG1-b12, an antibody binding to a non-related antigen, was used as a negative control (both unconjugated as well as in ADC format). Binding curves were analyzed by non-linear regression (sigmoidal dose-response with variable slope) using GraphPad Prism 5 software (GraphPad Software, San Diego, Calif., USA).

[6] = molecular target: T2, HisCD74v2 (recombinant extracellular …); assay: ELISA, coated recombinant CD74v2 extracellular domain
Procedure: as §1, §2

[7] = molecular target: human CD74, naturally expressed on cells (Raji, Daudi, M4A4, NCI-H747 cells; human tonsil tissue) (human) (UniProt P04233); assay: cell-based or functional assay
[8] = molecular target: human CD74, naturally expressed on cells (Raji, Daudi, M4A4, NCI-H747 cells; human tonsil tissue) (human) (UniProt P04233); assay: FACS on Daudi cells; mean of three experiments

Binder	EC50 [1] [µg/mL]	Maximal binding (MFI at 10 µg/mL) [2] [MFI]	EC50 [3] [µg/mL]	koff [4] [s⁻¹]	time until half of the bound labeled antibody was replaced [4] [min]	EC50 [5] [µg/mL]	EC50 [6] [µg/mL]	% viability (minimal) of Raji cells, anti-kappa-ETA' assay [7] [%]	EC50 of killing of Raji cells, anti-kappa-ETA' assay [7] [µg/mL]	EC50 [8] [µg/mL]	% kill of Daudi cells at 10 µg/mL [7] [%]	% kill of M4A4 cells at 10 µg/mL [7] [%]	% kill of NCI-H747 cells at 10 µg/mL [7] [%]	% kill of Raji cells at 10 µg/mL [7] [%]	IC50 of killing of Daudi cells [7] [µg/mL]	IC50 of killing of M4A4 cells [7] [µg/mL]	IC50 of killing of Raji cells [7] [µg/mL]	IC50 of killing of NCI-H747 cells [7] [µg/mL]
B1	0.196	4600	0.321	0.004	3	0.02	0.21	1.5	57	0.04	–	–	–	–	–	–	–	–
B2	–	4050	–	–	–	0.02	–	–	–	0.03	93	97	21	93	0.01	0.12	0.01	–
B3	–	3280	–	–	–	0.03	–	–	–	0.03	85	100	49	90	0.03	0.28	0.05	6.12
B4	–	3790	–	–	–	0.03	–	–	–	0.05	86	100	40	89	0.02	0.32	0.04	7.91
B5	–	5330	–	–	–	0.02	–	–	–	0.05	92	96	17	92	0.01	0.1	0.01	–
B6	0.151	5780	0.344	0.00117	10	0.02	0.245	–	–	0.05	–	–	–	–	–	–	–	–
